Results as given in patent publication US6465430.
Bridges are numbered along the chain shown (N, C = ends). Where no end group is shown, it is not given here.

Molecular target: soluble TPO-R (thrombopoietin receptor), immobilized (UniProt P40238 26-491)
Experiment: competition ELISA vs MBP-TPO156 (+: IC50 <=200 µM)

Sequence of soluble TPO-R (thrombopoietin receptor), immobilized (P40238 26-491): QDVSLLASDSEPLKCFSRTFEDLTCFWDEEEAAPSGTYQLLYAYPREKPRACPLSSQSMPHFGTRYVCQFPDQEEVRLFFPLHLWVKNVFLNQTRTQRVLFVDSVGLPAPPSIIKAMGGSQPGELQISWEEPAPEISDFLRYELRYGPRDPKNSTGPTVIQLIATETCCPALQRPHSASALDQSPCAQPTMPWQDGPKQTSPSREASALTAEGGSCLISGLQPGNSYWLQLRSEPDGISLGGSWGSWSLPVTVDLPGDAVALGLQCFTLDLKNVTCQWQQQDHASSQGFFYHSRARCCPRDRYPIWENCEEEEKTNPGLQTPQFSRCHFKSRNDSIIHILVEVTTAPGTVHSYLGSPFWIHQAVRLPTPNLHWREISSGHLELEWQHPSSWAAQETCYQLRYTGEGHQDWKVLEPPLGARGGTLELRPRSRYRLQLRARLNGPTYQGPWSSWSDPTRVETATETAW

IC50	Binder
0.5 to 200 µM	CADGPTLREWASFC-NH2 (disulfide 1-14 (inferred)) [cyclized SEQ ID NO:12 compound, I - A]
0.5 to 200 µM	CPTLREWISFC-NH2 (disulfide 1-11 (inferred)) [cyclized SEQ ID NO:12 compound, ADG - deletion]
